Starred links: 1 amine or outer side, 2 acyl side, 3 side chain; linkers in the order of their positions; H or OH if unused. Non-standard residues stand in square brackets, D forms with d. Groups on a side chain read outwards from the residue. No end group written: not given here. *: point of attachment. C18 diacid = O=C(O)CCCCCCCCCCCCCCCCC(=O)*; γGlu = O=C(O)[C@H](CCC(=O)[*:2])N[*:1]; Palmitoyl = CCCCCCCCCCCCCCCC(=O)*; AEEA = NCCOCCOCC(=O)O; Aib = CC(C)(N)C(=O)O
B1: SEQ ID NO: 165 (peptide)
peptide: Ac-IVLSLD[dV]PIKLK([AEEA-AEEA-γGlu-C18 diacid])QILLEQARQK[Aib]QREQAEKNEQILEQV-NH2
SMILES: CC[C@H](C)[C@H](NC(C)=O)C(=O)N[C@H](C(=O)N[C@@H](CC(C)C)C(=O)N[C@@H](CO)C(=O)N[C@@H](CC(C)C)C(=O)N[C@@H](CC(=O)O)C(=O)N[C@@H](C(=O)N1CCC[C@H]1C(=O)N[C@H](C(=O)N[C@@H](CCCCN)C(=O)N[C@@H](CC(C)C)C(=O)N[C@@H](CCCCNC(=O)COCCOCCNC(=O)COCCOCCNC(=O)CC[C@H](NC(=O)CCCCCCCCCCCCCCCCC(=O)O)C(=O)O)C(=O)N[C@@H](CCC(N)=O)C(=O)N[C@H](C(=O)N[C@@H](CC(C)C)C(=O)N[C@@H](CC(C)C)C(=O)N[C@@H](CCC(=O)O)C(=O)N[C@@H](CCC(N)=O)C(=O)N[C@@H](C)C(=O)N[C@@H](CCCNC(=N)N)C(=O)N[C@@H](CCC(N)=O)C(=O)N[C@@H](CCCCN)C(=O)NC(C)(C)C(=O)N[C@@H](CCC(N)=O)C(=O)N[C@@H](CCCNC(=N)N)C(=O)N[C@@H](CCC(=O)O)C(=O)N[C@@H](CCC(N)=O)C(=O)N[C@@H](C)C(=O)N[C@@H](CCC(=O)O)C(=O)N[C@@H](CCCCN)C(=O)N[C@@H](CC(N)=O)C(=O)N[C@@H](CCC(=O)O)C(=O)N[C@@H](CCC(N)=O)C(=O)N[C@H](C(=O)N[C@@H](CC(C)C)C(=O)N[C@@H](CCC(=O)O)C(=O)N[C@@H](CCC(N)=O)C(=O)N[C@H](C(N)=O)C(C)C)[C@@H](C)CC)[C@@H](C)CC)[C@@H](C)CC)C(C)C)C(C)C
B2: SEQ ID NO: 162 (peptide)
peptide: Ac-IVLSLD[dV]PIELK([AEEA-AEEA-γGlu-C18 diacid])QILLEQERQK[Aib]QREQAEKNKQILEQV-NH2
SMILES: CC[C@H](C)[C@H](NC(C)=O)C(=O)N[C@H](C(=O)N[C@@H](CC(C)C)C(=O)N[C@@H](CO)C(=O)N[C@@H](CC(C)C)C(=O)N[C@@H](CC(=O)O)C(=O)N[C@@H](C(=O)N1CCC[C@H]1C(=O)N[C@H](C(=O)N[C@@H](CCC(=O)O)C(=O)N[C@@H](CC(C)C)C(=O)N[C@@H](CCCCNC(=O)COCCOCCNC(=O)COCCOCCNC(=O)CC[C@H](NC(=O)CCCCCCCCCCCCCCCCC(=O)O)C(=O)O)C(=O)N[C@@H](CCC(N)=O)C(=O)N[C@H](C(=O)N[C@@H](CC(C)C)C(=O)N[C@@H](CC(C)C)C(=O)N[C@@H](CCC(=O)O)C(=O)N[C@@H](CCC(N)=O)C(=O)N[C@@H](CCC(=O)O)C(=O)N[C@@H](CCCNC(=N)N)C(=O)N[C@@H](CCC(N)=O)C(=O)N[C@@H](CCCCN)C(=O)NC(C)(C)C(=O)N[C@@H](CCC(N)=O)C(=O)N[C@@H](CCCNC(=N)N)C(=O)N[C@@H](CCC(=O)O)C(=O)N[C@@H](CCC(N)=O)C(=O)N[C@@H](C)C(=O)N[C@@H](CCC(=O)O)C(=O)N[C@@H](CCCCN)C(=O)N[C@@H](CC(N)=O)C(=O)N[C@@H](CCCCN)C(=O)N[C@@H](CCC(N)=O)C(=O)N[C@H](C(=O)N[C@@H](CC(C)C)C(=O)N[C@@H](CCC(=O)O)C(=O)N[C@@H](CCC(N)=O)C(=O)N[C@H](C(N)=O)C(C)C)[C@@H](C)CC)[C@@H](C)CC)[C@@H](C)CC)C(C)C)C(C)C
B3: SEQ ID NO: 19 (peptide)
peptide: IVLSLD[dV]PTKLK([γGlu-Palmitoyl])QKLLKQERQR[Aib]EREQAEKNKRILERV-NH2
modifications: N-terminus assumed
SMILES: CCCCCCCCCCCCCCCC(=O)N[C@@H](CCC(=O)NCCCC[C@H](NC(=O)[C@H](CC(C)C)NC(=O)[C@H](CCCCN)NC(=O)[C@@H](NC(=O)[C@@H]1CCCN1C(=O)[C@H](NC(=O)[C@H](CC(=O)O)NC(=O)[C@H](CC(C)C)NC(=O)[C@H](CO)NC(=O)[C@H](CC(C)C)NC(=O)[C@@H](NC(=O)[C@@H](N)[C@@H](C)CC)C(C)C)C(C)C)[C@@H](C)O)C(=O)N[C@@H](CCC(N)=O)C(=O)N[C@@H](CCCCN)C(=O)N[C@@H](CC(C)C)C(=O)N[C@@H](CC(C)C)C(=O)N[C@@H](CCCCN)C(=O)N[C@@H](CCC(N)=O)C(=O)N[C@@H](CCC(=O)O)C(=O)N[C@@H](CCCNC(=N)N)C(=O)N[C@@H](CCC(N)=O)C(=O)N[C@@H](CCCNC(=N)N)C(=O)NC(C)(C)C(=O)N[C@@H](CCC(=O)O)C(=O)N[C@@H](CCCNC(=N)N)C(=O)N[C@@H](CCC(=O)O)C(=O)N[C@@H](CCC(N)=O)C(=O)N[C@@H](C)C(=O)N[C@@H](CCC(=O)O)C(=O)N[C@@H](CCCCN)C(=O)N[C@@H](CC(N)=O)C(=O)N[C@@H](CCCCN)C(=O)N[C@@H](CCCNC(=N)N)C(=O)N[C@H](C(=O)N[C@@H](CC(C)C)C(=O)N[C@@H](CCC(=O)O)C(=O)N[C@@H](CCCNC(=N)N)C(=O)N[C@H](C(N)=O)C(C)C)[C@@H](C)CC)C(=O)O
B4: SEQ ID NO: 164 (peptide)
peptide: Ac-IVLSLD[dV]PIGLK([AEEA-AEEA-γGlu-C18 diacid])QILLEQERQK[Aib]QREQAEKNKQILEQV-NH2
SMILES: CC[C@H](C)[C@H](NC(C)=O)C(=O)N[C@H](C(=O)N[C@@H](CC(C)C)C(=O)N[C@@H](CO)C(=O)N[C@@H](CC(C)C)C(=O)N[C@@H](CC(=O)O)C(=O)N[C@@H](C(=O)N1CCC[C@H]1C(=O)N[C@H](C(=O)NCC(=O)N[C@@H](CC(C)C)C(=O)N[C@@H](CCCCNC(=O)COCCOCCNC(=O)COCCOCCNC(=O)CC[C@H](NC(=O)CCCCCCCCCCCCCCCCC(=O)O)C(=O)O)C(=O)N[C@@H](CCC(N)=O)C(=O)N[C@H](C(=O)N[C@@H](CC(C)C)C(=O)N[C@@H](CC(C)C)C(=O)N[C@@H](CCC(=O)O)C(=O)N[C@@H](CCC(N)=O)C(=O)N[C@@H](CCC(=O)O)C(=O)N[C@@H](CCCNC(=N)N)C(=O)N[C@@H](CCC(N)=O)C(=O)N[C@@H](CCCCN)C(=O)NC(C)(C)C(=O)N[C@@H](CCC(N)=O)C(=O)N[C@@H](CCCNC(=N)N)C(=O)N[C@@H](CCC(=O)O)C(=O)N[C@@H](CCC(N)=O)C(=O)N[C@@H](C)C(=O)N[C@@H](CCC(=O)O)C(=O)N[C@@H](CCCCN)C(=O)N[C@@H](CC(N)=O)C(=O)N[C@@H](CCCCN)C(=O)N[C@@H](CCC(N)=O)C(=O)N[C@H](C(=O)N[C@@H](CC(C)C)C(=O)N[C@@H](CCC(=O)O)C(=O)N[C@@H](CCC(N)=O)C(=O)N[C@H](C(N)=O)C(C)C)[C@@H](C)CC)[C@@H](C)CC)[C@@H](C)CC)C(C)C)C(C)C

The binders below were run against human corticotropin-releasing factor 2α (CRF2 α receptor) (human), Q13324 (assay: cell-based or functional assay).
human corticotropin-releasing factor 2α (CRF2 α receptor) (human), Q13324, sequence (Q13324 20-411): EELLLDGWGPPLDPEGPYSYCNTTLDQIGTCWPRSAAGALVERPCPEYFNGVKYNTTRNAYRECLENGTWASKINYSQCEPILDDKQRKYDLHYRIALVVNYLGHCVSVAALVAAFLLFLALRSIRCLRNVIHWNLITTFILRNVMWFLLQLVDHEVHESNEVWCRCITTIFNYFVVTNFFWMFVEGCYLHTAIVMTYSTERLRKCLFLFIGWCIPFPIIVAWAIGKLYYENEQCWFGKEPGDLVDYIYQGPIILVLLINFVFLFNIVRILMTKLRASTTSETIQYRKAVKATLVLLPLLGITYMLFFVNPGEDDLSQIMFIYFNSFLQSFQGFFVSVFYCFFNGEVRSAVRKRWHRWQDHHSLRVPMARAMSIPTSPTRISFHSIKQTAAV
An EC50 [nM], 0% HSA of 0.28 nM and an EC50 [nM], 0.1% HSA of 5.06 nM were found for B1 in this work. An EC50 [nM], 0% HSA of 2 nM and an EC50 [nM], 0.1% HSA of 30.5 nM were found for B2 in this work. An EC50 [nM], 0% HSA of 0.01 nM was found for B3 in this work. An EC50 [nM], 0% HSA of 0.24 nM and an EC50 [nM], 0.1% HSA of 3.91 nM were found for Ac-IVLSLD[dV]PIHLK([AEEA-AEEA-γGlu-C18 diacid])QILLEQERQK[Aib]QREQAEKNKQILEQV-NH2 [SEQ ID NO: 163] in this work. An EC50 [nM], 0% HSA of 0.69 nM and an EC50 [nM], 0.1% HSA of 10.1 nM were found for B4 in this work.
